Experiment [1] concerns the target T1, human PDL2 (human, UniProt Q9BQ51 20-219, limits assumed).
T1 construct: Bought protein
T1 sequence (looked up): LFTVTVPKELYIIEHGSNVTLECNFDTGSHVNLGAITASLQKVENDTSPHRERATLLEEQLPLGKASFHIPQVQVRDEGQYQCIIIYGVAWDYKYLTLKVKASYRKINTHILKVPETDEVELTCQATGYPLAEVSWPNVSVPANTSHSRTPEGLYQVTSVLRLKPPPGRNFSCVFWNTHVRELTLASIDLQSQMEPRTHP
The experiment can be described thus: ELISA, coated human PDL2. (In general: An ELISA detects its analyte on a solid surface through an enzyme-linked reagent.)

Experiment [2] addresses human PD-L1 expressed on cells (human, UniProt Q9NZQ7 19-290). As to the kind of experiment: cell-based or functional assay.
The target of experiment [3] is PD-L1 ligand (analyte of the Octet affinity measurement) (UniProt Q9NZQ7 19-238, limits assumed). The experiment can be described thus: BLI (Octet RED 96), antibody captured on anti-human IgG sensor, PD-L1 in solution, 1:1 fit. The protocol: Affinity Measurement: The affinity measurement was conducted with Octet RED 96 (ForteBio) instrument at 30 degree Celsius. Briefly, anti-human IgG capture sensor (AHC from ForteBio cat #18-5060) was equilibrated with assay buffer (1× dilution of 10× Kinetics Buffer (ForteBio, Cat #18-5032). Test antibody samples were diluted to 3 ug/mL and allowed to bind to the sensors for 5 min. The sensors were then washed in assay buffer for 3 minutes, and PD-L1 ligand diluted at different concentrations were allowed to bind to the mAb coated on the sensors for 5 minutes. Afterwards, dissociation was followed for 10 minutes in the assay buffer. The sensors could be regenerated by washing in glycine buffer and assay buffer 3 times. The data were fitted with 1:1 binding model using the ForteBio software.
A general note: BLI is a label-free optical method that tracks binding on a fibre tip over time.

Experiment [4] concerns the target T1, human PDL2. As to the kind of experiment: ELISA on coated human PDL2 (printed: hu PDL2-Fc), purified chimeric antibody [panel hu PDL2-Fc ELISA]. The protocol: PD-L1 binding ELISAs: B cell cloning supernatants were tested for binding to PD-L1 by ELISA. ELISA plates were coated with 100 uL antigen at 0.5 or 1 ug/mL in PBS (Life Technologies, cat. #14190-250) overnight at 4° C. or for 1 hour at 37° C. […] Plates were then blocked with PBS+10% goat serum for 1 hour. After washing with deionized water, samples were added in PBS/10% goat serum and incubated for 1 hour. […] Plates were then washed with deionized water and 100 uL TMB substrate (Thermo Scientific, cat. #PI134021) was added to each well. Development was stopped with 100 uL 1N H₂SO₄, and OD450 was measured using a microplate spectrophotometer.
Purified chimeric and humanized antibodies were tested for binding to PD-L1 by ELISA. Antigens tested include; human PD-L1-Fc, human PD-L1-his, murine PD-L1-his, and cynomolgus PD-L1-his (Sinobiological, cat. #90251-CO8H) and human PDL2 (Acrobiosystems, cat. #PD2-H5251). Protocols were the same as for testing B cell cloning supernatants except that the secondary antibodies were as follows; for human PD-L1-Fc the secondary was goat anti-human kappa-HRP (Novex, Life Technologies, cat. #A18853), for human PD-L1-his, murine PD-L1-his and cynomolgus PD-L1-his the secondary was goat anti-human IgG Fc-HRP (Jackson ImmunoResearch, cat. #109-005-098).

The next experiment has as its target T2, human PD-L1-Fc (human, UniProt Q9NZQ7 19-238, limits assumed).
T2 construct: Bought fusion protein; not shown: Fc part
The experiment can be described thus: competition ELISA: coated human PD-L1-Fc, antibody added first, then PD1-his, detected with anti-His-HRP.

PD-L1 ligand (analyte of the Octet affinity measurement), sequence (Q9NZQ7 19-238 limits assumed): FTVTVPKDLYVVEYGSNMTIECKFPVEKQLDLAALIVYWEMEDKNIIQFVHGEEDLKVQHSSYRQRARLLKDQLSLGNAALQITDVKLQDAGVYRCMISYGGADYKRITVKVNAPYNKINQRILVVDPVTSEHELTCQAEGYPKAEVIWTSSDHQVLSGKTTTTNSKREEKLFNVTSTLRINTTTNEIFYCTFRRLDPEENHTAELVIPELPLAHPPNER
human PD-L1 expressed on cells, sequence (Q9NZQ7 19-290): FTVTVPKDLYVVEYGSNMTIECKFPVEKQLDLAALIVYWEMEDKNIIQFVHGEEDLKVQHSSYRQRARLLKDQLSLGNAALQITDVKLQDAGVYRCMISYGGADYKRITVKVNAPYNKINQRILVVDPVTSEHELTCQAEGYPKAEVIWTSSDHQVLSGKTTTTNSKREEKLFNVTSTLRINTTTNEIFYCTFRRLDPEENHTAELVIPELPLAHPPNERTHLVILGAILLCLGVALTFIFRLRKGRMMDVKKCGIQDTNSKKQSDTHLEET
T2 sequence (Q9NZQ7 19-238 limits assumed): as the sequence (Q9NZQ7 19-238 limits assumed) above

B1: chimeric anti-PD-L1 antibody 111H2 (antibody, V domains shown)
VH: QEQLVESGGGLVQPGGTLKLSCKGSGFDLSSNAMCWVRQAPGKGLEWIGCIVYGNCYYASWVNGRFTISSDNAQSSVDLQLNSLTAADTATYFCARDPAGSSVYTGGFNIWGPGTLVTVSS
VL: AIDMTQTPSPVSAAVGDTVTINCQASENIYSFLAWYQQKPGHSPKPLIYFASKLASGVPSRFKGSGSGTQFTLTISDVQCDDAATYYCQQTVSYKNADTAFGGGTKVVVVR
notes: also called chimeric anti-PD-L1 111H2 antibody
Turning to B1, in the experiment with human PDL2 [1], the binding result is reported as “no binding”. Also, the “EC50 of the rise of luciferase activity, PD1/PD-L1 blockade reporter assay (CHO-K1/TCRA/PD-L1 cells with PD1/NFAT Jurkat cells); column Chimeric of the table under the plot” value in experiment [2] was 0.0483 µg/mL. In experiment [3], this molecule registered a Kd of 183 pM, a koff of 0.000197 s⁻¹ and a kon of 1.07e+06 M⁻¹ s⁻¹.

B2: chimeric anti-PD-L1 antibody 115C1 (antibody, V domains shown)
VH: CQSVKESEGGLFKPTDTLTLTCTVSGFSLSSVAVSWVRQAPGKGLEWIGTISYTGNTYYASWAKSRSTITRNTNENTVTLKMPSLTVADTATYFCAKEILYYGMDFWGPGTLVTVSS
VL: DIVMTQTPSSVSAAVGGTVTINCQASQSISSYLAWYQQKPGQPPKLLIYGASNLESGVPSRFKGSGSGTDFTLTISDLECADAATYYCQSTYGSTSTSDYGNAFGGGTKVVVVR
In experiment [3], B2 came in with a Kd of 51 pM, a koff of 2.08e-05 s⁻¹ and a kon of 455000 M⁻¹ s⁻¹. Besides, the binding result in the experiment with human PDL2 [4] is on record as “no binding (tested: 4 µg/mL)”.

B3: chimeric anti-PD-L1 antibody 116F3 (antibody, V domains shown)
VH: CQSVKESEGGLFKPTDTLTLTCTVSGIDLSSISIGWVRQAPGNGLEWIGTISDSGSAYYASWAKSRSTITRNTNENTVTLKMTSLTAADTASYFCAKEILYYGMDLWGPGTLVTVSS
VL: DVVMTQTPASVSGAVGGTVTIKCQASEDIESYLAWYQQKPGQPPKLLIYAASNLEPGVPSRFKGSRSGTEYTLTITDLECDDAATYHCQATYGSTSSSDYGNAFGGGTKVVVVR
As for B3, in experiment [3], the Kd was < 1 pM, the koff was < 1e-07 s⁻¹ and the kon worked out at 682000 M⁻¹ s⁻¹. Further, in the experiment with human PDL2 [4], the binding result was “no binding (tested: 4 µg/mL)”. In addition, the “IC50 (read off the curve)” value in the experiment with human PD-L1-Fc was ~0.2 µg/mL.

B4: chimeric anti-PD-L1 antibody 113F1 (antibody, V domains shown)
VH: CQSVKESEGGLFKPTDTLTLTCTVSGIDLSSIAISWVRQAPGNGLEWIGTINSYGSTYYASWAQSRSTITRNTNENTVTLKMTSLTAADTASYFCAKEILYYGMDVWGPGTLVTVSS
VL: DVVMTQTPASVEAAVGGTVTIKCQASQSISSYLAWYQQKPGQPPKLLIYAASNLESGVPSRFKGSGSGTEYTLTISDLECDDAATYYCQSTYGTTSTSDYGNAFGGGTKVVVVR
In experiment [3], B4 registered a Kd of 115 pM, a koff of 3.78e-05 s⁻¹ and a kon of 362000 M⁻¹ s⁻¹. In the experiment with human PDL2 [4], the binding result was “no binding (tested: 4 µg/mL)”.

B5: chimeric anti-PD-L1 antibody 110B4 (antibody, V domains shown)
VH: CQSVKESEGGLFKPTDTLTLTCKVSGIDLSSISISWVRQAPGNGLEWIGVINSYGNTYYASWAKSRSTITRNTNENTVTLKMTSLTAADTATYFCAKEILYYGMDLWGPGTLVTVSS
VL: DVVMTQTPASVEAAVGGTVTIKCQASQSISSYFSWYQQKPGQRPKLLIYDASNLESGVPSRFKGSRSGTEYTLTISDLEWDDAATYYCQCTYGSTSSSNYGNNFGGGTKVVVVR
Take B5: the binding result in the experiment with human PDL2 [1] is on record as “no binding”. In experiment [3], this molecule gave a Kd of 173 pM, a koff of 6.87e-05 s⁻¹ and a kon of 404000 M⁻¹ s⁻¹.

B6: chimeric anti-PD-L1 antibody 110H8 (antibody, V domains shown)
VH: CQSVKESEGGLFKPTDTLTLTCTVSGIDLSSVSISWVRQAPGNGLEWIGTIGASGSAYYASWAKRRSTITRNTNLNTVTLKMTSLTAADTASYFCAKEILYYGMDLWGPGTLVTVSS
VL: DVVMTQTPASVEAAVGGTVTIKCQASQSISNYLAWYQQKPGQRPKLLIYAASNLEPGVPSRFKGSGSGTEYTLTITDLECDDAATYHCQCTYGSTSSSDYGNAFGGGTKVVVVR
For the molecule B6, the binding result with human PDL2 [1] was “no binding”. Also, in experiment [3], the Kd was < 1 pM, the koff is < 1e-07 s⁻¹ and the kon worked out at 755000 M⁻¹ s⁻¹.

B7: chimeric anti-PD-L1 antibody 115E2 (antibody, V domains shown)
VH: CQSVKESEGGLFKPMDTLTLTCTVSGIDLGSVAISWVRQAPGKGLEWIGTIGSSGSAYYASWAKSRSTITRNTNLNTVTLKMTSLTAADTASYFCAKEILYYGMDRWGPGTLVTVSS
VL: DVVMTQTPASVEASVGGTVTINCQASQSISSYLAWYQQKPGQPPKLLIYAASNLEPGVPSRFKGSGSGTEFTLTISDLECADAATYYCQATYGSTSSSDYGNAFGGGTKVVVVR
B7: in experiment [3], the Kd came out at 100 pM, the koff stood at 4.99e-05 s⁻¹ and the kon stood at 532000 M⁻¹ s⁻¹. Further, the binding result in the experiment with human PDL2 [4] is on record as “no binding (tested: 4 µg/mL)”.

A word on the Kd: it is the equilibrium constant for the complex coming apart. A lower Kd goes with higher affinity. By koff is commonly meant a measure of how fast the partners let go of each other. Lower therefore signals a long-lived complex. Usually kon stands for the rate constant with which the complex forms.

The values above are taken from patent US20170355770A1 (ASKGENE PHARMA, published 2017).
